Laboratory results as given in article PMC5507911, “Beyond the Debye length in high ionic strength solution: direct protein detection with field-effect transistors (FETs) in human serum”.

T1: C-reactive protein (CRP) (UniProt P02741 19-224)
T1 sequence: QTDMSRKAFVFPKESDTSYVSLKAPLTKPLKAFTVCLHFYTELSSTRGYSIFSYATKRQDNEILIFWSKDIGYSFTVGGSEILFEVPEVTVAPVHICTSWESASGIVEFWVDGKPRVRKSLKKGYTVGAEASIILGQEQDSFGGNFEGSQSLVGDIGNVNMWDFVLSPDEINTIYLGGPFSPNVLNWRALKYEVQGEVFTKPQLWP

T2: C-reactive protein (CRP) in clinical serum (human, UniProt P02741 19-224)
T2 sequence: T1 sequence

B1: CRP aptamer (ssDNA)
DNA: GGCAGGAAGACAAACACGATGGGGGGGTATGATTTGATGTGGTTGTTGCATGATCGTGGTCTGTGGTGCTGT
modifications: 5' thiol (SH)

Assays:
[1] = molecular target: HIV-1 reverse transcriptase (HIV-1 RT) (HIV-1, UniProt P04585;P04585 588-1147;588-1027); experiment: EDL FET (AlGaN/GaN HEMT) biosensor; 1X PBS with 1% BSA; 1 fM-10 pM RT; current gain decreases with concentration; 1X PBS with 1% BSA (or undiluted human serum for CRP), 5 min incubation for HIV-1 RT, no washing; Vd 2 V, Vg pulse 0 to 0.5 V (HIV-1 RT); pH and temperature not stated; details: copies: 1;1
C-reactive protein (CRP) = molecular target: T1, C-reactive protein (CRP); experiment: EDL FET (AlGaN/GaN HEMT) biosensor; 1X PBS with 1% BSA; 1 fM-100 nM CRP; current gain increases with concentration; 1X PBS with 1% BSA (or undiluted human serum for CRP), 5 min incubation for HIV-1 RT, no washing; Vd 2 V, Vg pulse 0 to 0.5 V (HIV-1 RT); pH and temperature not stated; details: chain copies: 5
[2] = molecular target: T2, C-reactive protein (CRP) in clinical …; experiment: EDL FET (AlGaN/GaN HEMT) biosensor; undiluted human sera; 0.34-23.2 mg/L CRP; 1X PBS with 1% BSA (or undiluted human serum for CRP), 5 min incubation for HIV-1 RT, no washing; Vd 2 V, Vg pulse 0 to 0.5 V (HIV-1 RT); pH and temperature not stated; details: protein: native; chain copies: 5

Binder	binding result [1]	binding result (C-reactive protein (CRP))	binding result [2]
TTTTTTTATACGTGAGCGTGCTGTCCCCTAAAGGTGATACGTCAGGGG (ssDNA, 5' thiol (SH)) [HIV-1 RT aptamer]	binds		
B1		binds	binds
